# Test results taken from the RNAGym collection of RNA variant scans (doi:10.1093/molbev/msab373).
# B1: Azoarcus group I ribozyme (parent)
# chain: GUGCCUUGCGCCGGGAAACCACGCAAGGGAUGGUGUCAAAUUCGGCGAAACCUAAGCGCCCGCCCGGGCGUAUGGCAACGCCGAGCCAAGCUUCGGCGCCUGCGCCGAUGAAGGUGUAGAGACUAGACGGCACCCACCUAAGGCAAACGCUAUGGUGAAGGCAUAGUCCAGGGAGUGGCGAAAGUCACACAAACCGG
# Variants of: B1
# Assay: reverse-splicing fitness (ratio to wild type); higher = more active; in vitro selection; Mg2+ level not given
# Summary of the method: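 An in vitro group I ribozyme library with randomized positions was T7-transcribed and gel-purified. In triplicate, 10 pmol RNA in EPPS pH 7.5 was reacted with 50 pmoles of a 30-nt RNA substrate for 1 h at 37 °C across several added MgCl2 levels (1–48 mM), then stopped with EDTA. Products were reverse transcribed from a substrate-complementary primer, PCR-amplified and sequenced (HiSeq 4000). Fitness is a variant's read proportion after selection over that before, normalised to wild type.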
row,Variant,reverse-splicing fitness
1,C82A A120C A145G C150G C169A U176A,0.0141
2,C82A A120C A145G C150G C169A U176C,0.0128
3,C82A A120C A145G C150G C169A U176G,0.00933
4,C82A A120C A145C C150U C169A U176A,0.0161
5,C82A A120C A145C C150U C169A U176C,0.00786
6,C82A A120C A145C C150U C169A U176G,0.00541
7,C82A A120C A145G C169G,0.0102
8,C82A A120C A145G C169A,0.00985
9,C82A A120C A145G C169U,0.0214
10,C82A A120C A145G C150A U176G,0.00982
11,C82A A120C A145G C150A U176C,0.03
12,C82A A120C A145G C150A U176A,0.0137
13,C82A A120C A145U C169U U176G,0.0041
14,C82A A120C A145U C169U U176C,0.0114
15,C82A A120C A145U C169U U176A,0.0169
16,C82A A120C A145G C169A U176C,0.034
17,C82A A120C A145G C169A U176A,0.0242
18,C82A A120C A145G C169A U176G,0.00473
19,C82A A120C A145C C150G C169G,0.00784
20,C82A A120C A145C C150G C169U,0.00982
21,C82A A120C A145U C150G U176A,0.00792

row,Variant,reverse-splicing fitness
1,C82A A120C A145U C150G U176G,0.00376
2,C82A A120C A145U C150G U176C,0.0141
3,C82A A120C A145U C150A C169U U176G,0.00487
4,C82A A120C A145U C150A C169U U176C,0.0126
5,C82A A120C A145U C150A C169U U176A,0.0151
6,C82A A120C A145U C150A C169G,0.00904
7,C82A A120C A145U C150A C169U,0.00955
8,C82A A120C A145U C150A C169A,0.0105
9,C82A A120C A145U C150A U176G,0.00574
10,C82A A120C A145U C150A U176A,0.0143
11,C82A A120C A145U C150A U176C,0.0233
12,C82A A120C A145U C169U,0.0199
13,C82A A120C A145U C169A,0.00925
14,C82A A120C A145U C169G,0.00932
15,C82A A120C A145C C169A U176G,0.00403
16,C82A A120C A145C C169A U176A,0.015
17,C82A A120C A145C C169A U176C,0.00953
18,C82A A120C A145C C169G,0.0102
19,C82A A120C A145C C169A,0.00831
20,C82A A120C A145C C169U,0.0188
21,C82A A120C A145G C150U C169U U176G,0.00621

row,Variant,reverse-splicing fitness
1,C82A A120C A145G C150U C169U U176C,0.0136
2,C82A A120C A145G C150U C169U U176A,0.0157
3,C82A A120C A145G C150A C169U U176C,0.0163
4,C82A A120C A145G C150A C169U U176A,0.0177
5,C82A A120C A145G C150A C169U U176G,0.00765
6,C82A A120C A145C C169U U176A,0.0135
7,C82A A120C A145C C169U U176C,0.0127
8,C82A A120C A145C C169U U176G,0.00354
9,C82A A120C A145G C169G U176G,0.0041
10,C82A A120C A145G C169G U176A,0.0237
11,C82A A120C A145G C169G U176C,0.0316
12,C82A A120C A145G,0.136
13,C82A A120C A145U,0.135
14,C82A A120C A145G C150U C169G U176A,0.0144
15,C82A A120C A145G C150U C169G U176C,0.0202
16,C82A A120C A145G C150U C169G U176G,0.00573
17,C82A A120C A145U C150G C169A U176G,0.00455
18,C82A A120C A145U C150G C169A U176A,0.0116
19,C82A A120C A145U C150G C169A U176C,0.0131
20,C82A A120C A145G C150U C169A,0.0108
21,C82A A120C A145G C150U C169G,0.00896

row,Variant,reverse-splicing fitness
1,C82A A120C A145G C150U C169U,0.019
2,C82A A120C A145G C150U U176G,0.0102
3,C82A A120C A145G C150U U176C,0.0551
4,C82A A120C A145G C150U U176A,0.0309
5,C82A A120C A145G C150G C169A,0.01
6,C82A A120C A145G C150G C169G,0.00868
7,C82A A120C A145G C150G C169U,0.0111
8,C82A A120C A145G U176C,0.0683
9,C82A A120C A145G U176G,0.00861
10,C82A A120C A145G U176A,0.0426
11,C82A A120C A145G C150G U176C,0.0148
12,C82A A120C A145G C150G U176A,0.00881
13,C82A A120C A145G C150G U176G,0.00716
14,C82A A120C A145C C169G U176C,0.0239
15,C82A A120C A145C C169G U176A,0.031
16,C82A A120C A145C C169G U176G,0.00536
17,C82A A120C A145U C150U U176C,0.0422
18,C82A A120C A145U C150U U176A,0.0269
19,C82A A120C A145U C150U U176G,0.00864
20,C82A A120C A145C C150G U176G,0.00331
